B1: His-CAL1(1-160) [Drosophila melanogaster] / CENP-A(101-225)-H4 [Drosophila melanogaster] (parent complex)
chain 1: MANAVVDEETLEAMVYERSKAWSSKMADFASLEDGMEIDVAEFDNLFHGEDEDPDLDDVAKEAVEDNVPDEAKLEMGHINATSVTELTLILCANEDNEAKAEIEEILNQTVPVVEEHKRKWREAGLDRILDTFDEKQIEHHVGRWMRRHNSVYLEASPPK
chain 2: QQESKTRAAGPVAAQNQTRRRKAANPMSRAKRMDREIRRLQHHPGTLIPKLPFSRLVREFIVKYSDDEPLRVTEGALLAMQESCEMYLTQRLADSYMLTKHRNRVTLEVRDMALMAYICDRGRQF
chain 3: not shown
B2: CAL1-HA (in S2 cells) [Drosophila melanogaster] / GFP-LacI-CENP-C (in S2 cells) [Drosophila melanogaster] (parent complex)
chain 1: MANAVVDEETLEAMVYERSKAWSSKMADFASLEDGMEIDVAEFDNLFHGEDEDPDLDDVAKEAVEDNVPDEAKLEMGHINATSVTELTLILCANEDNEAKAEIEEILNQTVPVVEEHKRKWREAGLDRILDTFDEKQIEHHVGRWMRRHNSVYLEASPPKYLPPHHNSISDESDESMHSIDTARYIQQSRRRNAHMTNKNMTTIKMYRKHSHKRDELRAKYAYGDEQEHRHHMQAVLLRRRERERQLAYLASTPMQCVYSSGHHMRRKNLRKRRINSWMFDSASSSEEDTSFGGCDCHSCRRHYALSRSVYQSCPYGRGQREYHHRQMASRTMHTMRRQHTFDMEMDLRPRLPENECSCCNSDRLCSNVIHIANSSTEEWVVENRSNHLTQETQEKTRKQKHQPMDARKVSHQPVCSKGHEQKPLSSKATSVSKLVLSKEKYMQMFDSESSDEDNALAKKGLLCCSDKKKGMTFPTPNAAGKITHPTSSAKKAIRKEARPNGLAQIQEEGPTATNSPIESTYLPVAHMKSVSIDGSSGTSATFESPAKKAPKRGIRETSPLNGNELQQLISTIPIADEKASSLMEKVDNCIGRESFDDRNKDFMHMENSSTKTAVEKSTKQKRVSGKKSEIPKSIITNNEILEKNSTETLSEKQVAAKAKKQSVRKTGATGKPSTSRLKKSEKTKTTSSVTSTSKLEQVREEESDVSSEVLAKPKPQCSTTASILKQGGDGASNSEDDLQIALAMSKATYKEEQQKRKKTKREPSNKQPQSPAEKSMTVFNNQSVACNSTALANDTACYRVLPKRRGVKRAAAVSTTEEKTATNSSSSPTSSLEEMGSPTGGDPDCTVVTSTTGCEPPASERQEIPATIKITKRGILLHSPSAPEGASFTLTEQGLGKIIGERWARKYLKYHIGSRSFDSRHSVYYQPTPQLAAALSAPQDAQNIGNISGSSASDDDIFEQINRYGTVYSILENNSGDK
chain 2: MSKPQNNDTLELDDILSQPVKDKERFAAFMMRKLAENKPAQNDNLFGNFKLDFDLDFEVPLIKKSQAKPKSKLPEVQPLGELVSKNSAATEKVNEPPVDQAPNENVPPRRSPTLSPNNRRSMRRSGNVPGSDKLRRHAIRRRSRSCGRQLLPEFEETVNLTRSISSPVNFLPEISSTPCTEKQKEEVAKNTTRVETDKPAEKPMELSQEPEPENPLQTKVTSPARNPILAAEIEQICKERQSSFHKNVLQLDYSGRAPYSRPPTPSSPSVAGLRRTYTMEKGPAPGQLLLSPSHRYDTPSKMPVVKAKRFNQELMVPDTPERQSHDPAWQSEPQPEFVVPETQPQDLGELVQTLSRSAISPIVVINTSNSNRSVRRDAVAMKSVPTSPVTALSSPPIAPSPRRSAAASPQKSIAQLPRVEENMDAIMTDDESDEHPSTVPLNLAPSGGNTTRQRRLRSSNRARATIESQESSMRLLNLHKSVNAKKSKPRKTAIPLNKAPSAPINGEQFARELTRMSNYEILDLRKRNSLNEIYPLNGHRNHRSEKLILEEEIQRELLRRNLMDEAEGLPKQQSSDDSNEDYIPVPPKTQSLRTKSNDRSQGRGRPRSTRRDLPMTTELVNYLGLSQTLETRRKSSKDGKRCLYTKGSSDHEDNDSLSPVKLPRLSKSIQIVPPPPVSLRYSQSLQNLPCSGKFDFDNVVMAAPPDFHDSVNSDAIEIAPPPPEYVVNTRGRSTSGRKSNKNDLVLPPPGYEGGQEEEHDERPSQPRCTAKELQQSTQNGRRAMENELVPPPIEYVEEENRNNEQSRRSTKNGNLVDRNTHNAVEYCEPPEPPEYDDSDHGQASILRRSGKKLQHSKQSVQKSNKEQIIAPSYENNEDYDSDEEPIYNEEYGKEESQNKNVTRRKSDKDEMASHTLECIEGPDPNWNSSCNKQNRNHQNASKSKENDKLANRSSKSQKLSNPRQNAVGTEKSVALSNRGEECTEKSSDVMESLRVNTPTPPIDQNSDDVPSRNPSPSRTLLSDDVPSTSRAALEFLQRSQNMSKSRPPDESSADVVFKKPLAPAPRAKSKKGKSEVDKLKLAKMPVEAEELNTTGIRRSKRGQVPLQMSWCHTMDPSKFNFMSGFIEPRSKNSKTKKGNLSKAKKASATKPKPTVEKNLPDNRGPLCSSTPRISEKLPGAIPHSESLGLSTLTWEETEVQAEAEKVPKKRGRPKKAVGGVQTDTEAEPEPEPEPMISSVAPLTSDQEEPDVPDEQAPYTEAALGPVVFSTPLRDEQEEASTKLMQWLRGVGDAPPSASMSDENASVSSANELIFCQVDGIDYAFYNTKEKAMLGYMRFKPYQKRSMKQAKVHPLKLLVQFGEFNVETLAVGEEKEVHSVLRVGDMIEIDRGTRYSIQNAIDKVSVLMCIRS
B3: CAL1-V5 (in U2OS cells) [Drosophila melanogaster] / CENP-A-GFP-LacI (in U2OS cells) [Drosophila melanogaster] (parent complex)
chain 1: B2 chain 1
chain 2: MPRHSRAKRAPRPSANNSKSPNDDDTAFRSPEPEDGTDYGLEFTTSQLTLQDNNRRSSTLRRDAGRRQPAARDSSTSGEEEDQENRYPTTRSPQTRRMTVQQESKTRAAGPVAAQNQTRRRKAANPMSRAKRMDREIRRLQHHPGTLIPKLPFSRLVREFIVKYSDDEPLRVTEGALLAMQESCEMYLTQRLADSYMLTKHRNRVTLEVRDMALMAYICDRGRQF

Variants of: B1
Assay: Ni-NTA pull-down, band intensity quantification; parent: 3; read off a plot

Variant	response
chain 1 F29R	~2.6 ratio CENP-A101-225/H4:CAL11-160
chain 1 W22R	~0.7 ratio CENP-A101-225/H4:CAL11-160
chain 1 W22R, chain 1 F29R	~0.42 ratio CENP-A101-225/H4:CAL11-160
chain 1 W22A, chain 1 F29A	~0.38 ratio CENP-A101-225/H4:CAL11-160
chain 1 F43R	~1.8 ratio CENP-A101-225/H4:CAL11-160
chain 1 F29A	~3.2 ratio CENP-A101-225/H4:CAL11-160

Variants of: B1
Assay: Ni-NTA pull-down, band intensity quantification; parent: 4.1; read off a plot

Variant	response
chain 2 Q90G	~2.8 ratio CENP-A101-225/H4:CAL11-160
chain 2 M86A	~3.6 ratio CENP-A101-225/H4:CAL11-160
chain 2 S54Q	~3.5 ratio CENP-A101-225/H4:CAL11-160
chain 2 S54Q, chain 2 M86A, chain 2 Q90G	~0.85 ratio CENP-A101-225/H4:CAL11-160
chain 2 S54Q, chain 2 M86A	~2.9 ratio CENP-A101-225/H4:CAL11-160

Variants of: B2
Assay: LacO/LacI tethering assay in U2OS cells (fluorescence intensity of CAL1-V5 at the tethering site); parent: 2.1e+03; read off a plot

Variant	response [a.u.]
chain 2 F1324R	~300
chain 2 L1357E, chain 2 M1407E	~490

Variants of: B2
Assay: LacO/LacI tethering assay in Drosophila S2 cells (fluorescence intensity of CAL1-HA at the tethering site); parent: 650; read off a plot

Variant	response [a.u.]
chain 2 F1324R	~35
chain 2 L1357E, chain 2 M1407E	~60

Variants of: B2
Assay: LacO/LacI tethering assay in U2OS cells (fluorescence intensity of CAL1-V5 at the tethering site); parent: 2.1e+03; read off a plot
Remark: another data set of the same source

Variant	response [a.u.]
chain 1 I900R, chain 1 K907A, chain 1 Y908A	~300

Variants of: B2
Assay: LacO/LacI tethering assay in Drosophila S2 cells (fluorescence intensity of CAL1-HA at the tethering site); parent: 650; read off a plot
Remark: another data set of the same source

Variant	response [a.u.]
chain 1 I900R, chain 1 K907A, chain 1 Y908A	~12

Variants of: B3
Assay: LacO/LacI tethering assay in U2OS cells (fluorescence intensity of CAL1-V5 at the tethering site); parent: 1.1e+03; read off a plot

Variant	response [a.u.]
chain 1 W22R, chain 1 F29R	~20
chain 1 W22A, chain 1 F29A	~110

Source: PMC7110144 (2020)
